This test addresses Anasazi bean lectin (lectin from seeds of Phaseolus vulgaris cv. Anasazi beans) (Phaseolus vulgaris). In words: SEC; FPLC-gel filtration on Superdex 200 HR 10/30 calibrated with molecular-mass standards, 20 mM Tris-HCl buffer (pH 7.3); 60 kDa peak set against the 30 kDa band in SDS-PAGE.

Broadly, the stoichiometry N is the number of molecules, sites or subunits per partner or assembly.

Substance “Anasazi bean lectin (lectin from seeds of Phaseolus vulgaris cv. Anasazi beans) (natural protein)” had a stoichiometry N of 2.

The record behind these values is paper PMC2661133.
